Test results taken from IntAct's records for PubMed 21703451.

B1: Transient receptor potential protein (Drosophila melanogaster (Fruit fly)), P19334 (parent)
chain: MGSNTESDAEKALGSRLDYDLMMAEEYILSDVEKNFILSCERGDLPGVKKILEEYQGTDKFNINCTDPMNRSALISAIENENFDLMVILLEHNIEVGDALLHAISEEYVEAVEELLQWEETNHKEGQPYSWEAVDRSKSTFTVDITPLILAAHRNNYEILKILLDRGATLPMPHDVKCGCDECVTSQMTDSLRHSQSRINAYRALSASSLIALSSRDPVLTAFQLSWELKRLQAMESEFRAEYTEMRQMVQDFGTSLLDHARTSMELEVMLNFNHEPSHDIWCLGQRQTLERLKLAIRYKQKTFVAHPNVQQLLAAIWYDGLPGFRRKQASQQLMDVVKLGCSFPIYSLKYILAPDSEGAKFMRKPFVKFITHSCSYMFFLMLLGAASLRVVQITFELLAFPWMLTMLEDWRKHERGSLPGPIELAIITYIMALIFEELKSLYSDGLFEYIMDLWNIVDYISNMFYVTWILCRATAWVIVHRDLWFRGIDPYFPREHWHPFDPMLLSEGAFAAGMVFSYLKLVHIFSINPHLGPLQVSLGRMIIDIIKFFFIYTLVLFAFGCGLNQLLWYYAELEKNKCYHLHPDVADFDDQEKACTIWRRFSNLFETSQSLFWASFGLVDLVSFDLAGIKSFTRFWALLMFGSYSVINIIVLLNMLIAMMSNSYQIISERADTEWKFARSQLWMSYFEDGGTIPPPFNLCPNMKMLRKTLGRKRPSRTKSFMRKSMERAQTLHDKVMKLLVRRYITAEQRRRDDYGITEDDIIEVRQDISSLRFELLEIFTNNNWDVPDIEKKSQGVARTTKGKVMERRILKDFQIGFVENLKQEMSESESGRDIFSSLAKVIGRKKTQKGDKDWNAIARKNTFASDPIGSKRSSMQRHSQRSLRRKIIEQANEGLQMNQTQLIEFNPNLGDVTRATRVAYVKFMRKKMAADEVSLADDEGAPNGEGEKKPLDASGSKKSITSGGTGGGASMLAAAALRASVKNVDEKSGADGKPGTMGKPTDDKKAGDDKDKQQPPKDSKPSAGGPKPGDQKPTPGAGAPKPQAAGTISKPGESQKKDAPAPPTKPGDTKPAAPKPGESAKPEAAAKKEESSKTEASKPAATNGAAKSAAPSAPSDAKPDSKLKPGAAGAPEATKATNGASKPDEKKSGPEEPKKAAGDSKPGDDAKDKDKKPGDDKDKKPGDDKDKKPADNNDKKPADDKDKKPGDDKDKKPGDDKDKKPSDDKDKKPADDKDKKPAAAPLKPAIKVGQSSAAAGGERGKSTVTGRMISGWL

Variants of: B1
Settings: with inad_drome inaD

| effect of a mutation on the interaction | Variant |
| --- | --- |
| disrupting interaction | V1266A;W1274A |
| decreasing interaction | V1266A |
